The supplement of paper PMC10724198
± gives the standard deviation of the averaged measurements.

Columns and labels:
Saccharomyces cerevisiae [1] = experiment: protein stability index of tFT-peptide fusion (C-terminal peptide) (PSI (0-1 scale)); higher = more stable (slower turnover)
Experimental: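 MPS profiling in S. cerevisiae of the tFT-X12 degron library: putative degron peptides plus stable controls, 12 aa, fused to the C-terminus of a sfGFP-mCherry timer. Cells are FACS-sorted into 8 mCherry/sfGFP bins and deep-sequenced. PSI runs from 0 (unstable) to 1 (stable). Backgrounds are wild type, das1Δ and doa10Δ at 30 °C, and wild type, das1Δ, cdc34-1 and cdc53-1 at 37 °C; 2-3 technical replicates each.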

Saccharomyces cerevisiae [2] = experiment: as above; conditions: genetic background: wild type; temperature: 30 C
[3] = genetic background: cdc34-1, temperature: 37 C
[4] = genetic background: cdc53-1, temperature: 37 C
[5] = genetic background: das1 deletion, temperature: 30 C
[6] = genetic background: das1 deletion, temperature: 37 C
[7] = genetic background: doa10 deletion, temperature: 30 C
[8] = genetic background: wild type, temperature: 30 C
[9] = genetic background: wild type, temperature: 37 C
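Also: PSI is a weighted mean of sequencing reads over stability bins, variants kept only with over 10 reads, mCherry proximal and sfGFP distal, peptide attached via GGGS linker.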

| Sequence | protein stability index (Saccharomyces cerevisiae [1]; [3]) | protein stability index (Saccharomyces cerevisiae [1]; [4]) | protein stability index (Saccharomyces cerevisiae [1]; [5]) | protein stability index (Saccharomyces cerevisiae [1]; [6]) | protein stability index (Saccharomyces cerevisiae [1]; [7]) | protein stability index (Saccharomyces cerevisiae [1]; [8]) | protein stability index (Saccharomyces cerevisiae [1]; [9]) | protein stability index (Saccharomyces cerevisiae [2]) |
| --- | --- | --- | --- | --- | --- | --- | --- | --- |
| RVSECVSVVGWM | 0.678 ± 0.082 | 0.723 ± 0.025 | 0.624 ± 0.019 | 0.737 ± 0.011 | 0.619 ± 0.024 | 0.633 ± 0.0064 | 0.7147 ± 0.0044 | 0.562 ± 0.14 |
| RVYLLGLFVRSG | 0.552 ± 0.035 | 0.61 ± 0.014 | 0.409 ± 0.04 | 0.632 ± 0.021 | 0.325 ± 0.017 | 0.371 ± 0.031 | 0.574 ± 0.033 | 0.491 ± 0.0076 |
| RWCLELLWITSC | 0.325 ± 0.013 | 0.451 ± 0.013 | 0.355 ± 0.03 | 0.5006 ± 0.005 | 0.0892 ± 0.0011 | 0.0824 ± 0.015 | 0.0678 ± 0.011 | 0.162 ± 0.015 |
| RWPLVIRSLIVF | 0.196 ± 0.0088 | 0.226 ± 0.0098 | 0.251 ± 0.026 | 0.325 ± 0.019 | 0.214 ± 0.00073 | 0.22 ± 0.017 | 0.233 ± 0.01 | 0.2944 ± 0.0027 |
| RWRRWCVVLFVV | 0.197 ± 0.043 | 0.307 ± 0.021 | 0.301 ± 0.025 | 0.456 ± 0.0067 | 0.0648 ± 0.015 | 0.0689 ± 0.013 | 0.0816 ± 0.01 | 0.117 ± 0.012 |
| RYVFAFRRNYFC | 0.448 ± 0.089 | 0.682 ± 0.0095 | 0.636 ± 0.018 | 0.744 ± 0.0096 | 0.171 ± 0.014 | 0.174 ± 0.026 | 0.299 ± 0.038 | 0.223 ± 0.015 |
| RYVVVGACIQVV | 0.421 ± 0.015 | 0.447 ± 0.0078 | 0.302 ± 0.024 | 0.48 ± 0.0021 | 0.274 ± 0.015 | 0.314 ± 0.012 | 0.4511 ± 0.003 | 0.37 ± 0.011 |
| SDAIKITFIIHN | 0.687 ± 0.043 | 0.632 ± 0.024 | 0.59 ± 0.012 | 0.667 ± 0.016 | 0.425 ± 0.01 | 0.46 ± 0.009 | 0.586 ± 0.0065 | 0.473 ± 0.062 |
| SFFFLILFLFRD | 0.372 ± 0.11 | 0.459 ± 0.04 | 0.315 ± 0.029 | 0.484 ± 0.014 | 0.318 ± 0.019 | 0.299 ± 0.03 | 0.466 ± 0.04 | 0.385 ± 0.053 |
| SFLACFVLAFFC | 0.4055 ± 0.00023 | 0.478 ± 0.018 | 0.346 ± 0.032 | 0.475 ± 0.011 | 0.24 ± 0.0037 | 0.281 ± 0.017 | 0.411 ± 0.022 | 0.372 ± 0.014 |
| SFPPLPPLPLPP | 0.64 ± 0.032 | 0.688 ± 0.0089 | 0.578 ± 0.0094 | 0.6778 ± 0.0031 | 0.594 ± 0.014 | 0.5917 ± 0.0043 | 0.6445 ± 0.0054 | 0.571 ± 0.2 |
| SFTRYIFFLMFF | 0.438 ± 0.051 | 0.475 ± 0.037 | 0.417 ± 0.023 | 0.585 ± 0.021 | 0.4089 ± 0.0013 | 0.325 ± 0.017 | 0.456 ± 0.0069 | 0.355 ± 0.015 |
| SGPCSPRNLRRL | 0.699 ± 0.032 | 0.754 ± 0.012 | 0.621 ± 0.017 | 0.736 ± 0.019 | 0.651 ± 0.015 | 0.647 ± 0.03 | 0.719 ± 0.02 | 0.281 ± 0.018 |
| SGPTIRRRLFVH | 0.647 ± 0.021 | 0.735 ± 0.02 | 0.621 ± 0.012 | 0.7286 ± 0.0068 | 0.148 ± 0.018 | 0.17 ± 0.043 | 0.347 ± 0.019 | 0.333 ± 0.0092 |
| SLIDPLGNLFNS | 0.71 ± 0.015 | 0.756 ± 0.038 | 0.682 ± 0.039 | 0.756 ± 0.028 | 0.672 ± 0.024 | 0.678 ± 0.014 | 0.72 ± 0.018 | 0.752 ± 0.041 |
| SLIFLLVLILSL | 0.412 ± 0.023 | 0.51 ± 0.05 | 0.369 ± 0.038 | 0.493 ± 0.029 | 0.364 ± 0.048 | 0.347 ± 0.036 | 0.483 ± 0.046 | 0.363 ± 0.074 |
| SLLFLVLFFPLV | 0.4885 ± 0.00069 | 0.524 ± 0.025 | 0.42 ± 0.034 | 0.55 ± 0.029 | 0.456 ± 0.019 | 0.43 ± 0.03 | 0.506 ± 0.0075 | 0.432 ± 0.023 |
| SLPCCKVVFCVI | 0.5166 ± 0.001 | 0.554 ± 0.023 | 0.417 ± 0.038 | 0.575 ± 0.01 | 0.332 ± 0.0048 | 0.355 ± 0.036 | 0.515 ± 0.015 | 0.4491 ± 0.003 |
| SLVIRLNIRLIL | 0.462 ± 0.021 | 0.435 ± 0.0077 | 0.423 ± 0.03 | 0.414 ± 0.034 | 0.329 ± 0.0061 | 0.325 ± 0.018 | 0.361 ± 0.019 | 0.394 ± 0.011 |
| SPCSNFLECLSF | 0.714 ± 0.03 | 0.7431 ± 0.0018 | 0.643 ± 0.0079 | 0.729 ± 0.017 | 0.626 ± 0.025 | 0.641 ± 0.017 | 0.733 ± 0.0071 | 0.561 ± 0.11 |

| Sequence | protein stability index (Saccharomyces cerevisiae [1]; [3]) | protein stability index (Saccharomyces cerevisiae [1]; [4]) | protein stability index (Saccharomyces cerevisiae [1]; [5]) | protein stability index (Saccharomyces cerevisiae [1]; [6]) | protein stability index (Saccharomyces cerevisiae [1]; [7]) | protein stability index (Saccharomyces cerevisiae [1]; [8]) | protein stability index (Saccharomyces cerevisiae [1]; [9]) | protein stability index (Saccharomyces cerevisiae [2]) |
| --- | --- | --- | --- | --- | --- | --- | --- | --- |
| SPGFVLLAVLVI | 0.1636 ± 0.0011 | 0.235 ± 0.0088 | 0.231 ± 0.029 | 0.356 ± 0.016 | 0.194 ± 0.002 | 0.214 ± 0.025 | 0.323 ± 0.04 | 0.347 ± 0.086 |
| SPGGALVFFVLV | 0.552 ± 0.038 | 0.5998 ± 0.0056 | 0.44 ± 0.023 | 0.617 ± 0.0083 | 0.391 ± 0.012 | 0.431 ± 0.027 | 0.606 ± 0.017 | 0.467 ± 0.0054 |
| SPRSIALLHLFS | 0.648 ± 0.063 | 0.708 ± 0.051 | 0.655 ± 0.02 | 0.705 ± 0.062 | 0.154 ± 0.017 | 0.213 ± 0.031 | 0.327 ± 0.024 | 0.3 ± 0.044 |
| SPSRAGQHLYYP | 0.684 ± 0.028 | 0.7347 ± 0.0032 | 0.64 ± 0.016 | 0.7334 ± 0.0037 | 0.636 ± 0.0095 | 0.662 ± 0.011 | 0.6953 ± 0.0059 | 0.718 ± 0.034 |
| SPTRTCTAIRTP | 0.689 ± 0.068 | 0.7392 ± 0.0058 | 0.666 ± 0.022 | 0.708 ± 0.0022 | 0.683 ± 0.057 | 0.676 ± 0.027 | 0.671 ± 0.0068 | 0.712 ± 0.034 |
| SRFFSSSFYRLC | 0.675 ± 0.036 | 0.7576 ± 0.0075 | 0.661 ± 0.012 | 0.777 ± 0.018 | 0.176 ± 0.0056 | 0.198 ± 0.036 | 0.485 ± 0.042 | 0.324 ± 0.046 |
| SRGGVFYVRIHS | 0.647 ± 0.043 | 0.709 ± 0.014 | 0.628 ± 0.016 | 0.697 ± 0.018 | 0.239 ± 0.0035 | 0.279 ± 0.029 | 0.4917 ± 0.0011 | 0.455 ± 0.051 |
| SRLLGVKVSLVC | 0.518 ± 0.025 | 0.567 ± 0.033 | 0.419 ± 0.031 | 0.581 ± 0.0085 | 0.35 ± 0.0097 | 0.384 ± 0.031 | 0.5364 ± 0.0038 | 0.472 ± 0.032 |
| SRVSEFVIPLGR | 0.7038 ± 0.0057 | 0.7389 ± 0.0046 | 0.622 ± 0.018 | 0.7555 ± 0.0021 | 0.644 ± 0.023 | 0.6473 ± 0.0059 | 0.71 ± 0.016 | 0.719 ± 0.033 |
| SSAFFFLLFSLA | 0.4227 ± 0.003 | 0.484 ± 0.006 | 0.342 ± 0.031 | 0.511 ± 0.009 | 0.244 ± 0.0068 | 0.266 ± 0.037 | 0.446 ± 0.0051 | 0.366 ± 0.013 |
| SSGIGLFVWVYG | 0.465 ± 0.0058 | 0.456 ± 0.015 | 0.282 ± 0.035 | 0.514 ± 0.013 | 0.226 ± 0.0051 | 0.268 ± 0.035 | 0.5023 ± 0.0012 | 0.421 ± 0.014 |
| SSLLLLCCLLVG | 0.365 ± 0.029 | 0.427 ± 0.015 | 0.277 ± 0.032 | 0.437 ± 0.01 | 0.248 ± 0.013 | 0.263 ± 0.03 | 0.403 ± 0.014 | 0.332 ± 0.01 |
| SSVCVLVSCVLG | 0.462 ± 0.019 | 0.5241 ± 0.0032 | 0.375 ± 0.037 | 0.5353 ± 0.0013 | 0.363 ± 0.013 | 0.382 ± 0.022 | 0.5117 ± 0.00052 | 0.4818 ± 0.0031 |
| SVGWGFWARFIG | 0.686 ± 0.057 | 0.756 ± 0.013 | 0.665 ± 0.014 | 0.772 ± 0.0086 | 0.215 ± 0.016 | 0.253 ± 0.017 | 0.434 ± 0.018 | 0.379 ± 0.069 |
| SVLALLWVGCWL | 0.355 ± 0.0064 | 0.4238 ± 0.0021 | 0.271 ± 0.045 | 0.478 ± 0.017 | 0.253 ± 0.0065 | 0.265 ± 0.029 | 0.452 ± 0.028 | 0.378 ± 0.055 |
| SVQICGFWLILG | 0.512 ± 0.031 | 0.604 ± 0.046 | 0.416 ± 0.026 | 0.5955 ± 0.0046 | 0.317 ± 0.0037 | 0.333 ± 0.011 | 0.53992 ± 0.00031 | 0.386 ± 0.06 |
| SVRGGSFLVHLC | 0.614 ± 0.096 | 0.758 ± 0.011 | 0.636 ± 0.018 | 0.7525 ± 0.0012 | 0.154 ± 0.017 | 0.168 ± 0.015 | 0.337 ± 0.015 | 0.337 ± 0.043 |
| SVVVLHVHVRPP | 0.618 ± 0.035 | 0.692 ± 0.018 | 0.5839 ± 0.0056 | 0.63 ± 0.011 | 0.593 ± 0.044 | 0.582 ± 0.024 | 0.6287 ± 0.0031 | 0.517 ± 0.12 |
| SWCLLVWIGGVF | 0.288 ± 0.038 | 0.376 ± 0.033 | 0.295 ± 0.027 | 0.451 ± 0.02 | 0.251 ± 0.01 | 0.264 ± 0.03 | 0.432 ± 0.017 | 0.388 ± 0.094 |
